The values below come from US6987089 (dated 2006).

Assay [1] deals with T1, wild type CAD (CAD-WT) (1-345), caspase-activated deoxyribonuclease, 35S-labelled (mouse, UniProt O54788 1-344, 35S label).
T1 construct: range 1-345; also called 35S-labeled CAD
T1 sequence (looked up): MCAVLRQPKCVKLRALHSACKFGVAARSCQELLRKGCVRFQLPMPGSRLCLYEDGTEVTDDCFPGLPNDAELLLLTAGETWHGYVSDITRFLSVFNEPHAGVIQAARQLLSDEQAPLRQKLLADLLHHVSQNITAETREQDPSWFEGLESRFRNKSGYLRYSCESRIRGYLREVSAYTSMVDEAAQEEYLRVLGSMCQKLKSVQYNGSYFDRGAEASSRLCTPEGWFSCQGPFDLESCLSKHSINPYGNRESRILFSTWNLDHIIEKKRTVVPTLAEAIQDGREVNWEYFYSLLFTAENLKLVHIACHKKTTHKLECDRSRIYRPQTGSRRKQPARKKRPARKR
The assay can be described thus: GST pull-down on glutathione-agarose beads, labelled CAD, SDS-PAGE. Here is the method: In detail, wild type CIA (CIA-WT) and its deletion mutants, CIA-ΔN, CIA-ΔC and CIA-CEN, all of them prepared in Example 4, were immobilized onto glutathione-agarose beads and then applied to in vitro translated [^35S] methionine-labeled CAD. Meanwhile, wild type CAD (CAD-WT) (1–345) and its deletion mutants, CAD-ΔN deficient in a […] region (Δ1–83), CAD-NT containing N-terminal half only (Δ162–345), CAD-ΔC deficient in a C-terminal region (Δ290–345), were prepared by PCR and cloned to pLexA (Clonetech). After being isolated and purified from E. coli transformants harboring the expression vectors, the recombinant proteins CAD-WT, CAD-ΔN, CAD-NT and CAD-ΔC, were labeled with ^35S radioactive isotope, and then applied to the glutathione-agarose beads onto which GST-CIA was immobilized. The proteins bounded to the glutathione-agarose beads were eluted, and separated on a gel by SDS-PAGE.

Assay [2] addresses T2, ASK1 wild-type, full length (apoptosis signal-regulating kinase 1), in vitro translated and … (UniProt Q99683 1-1374, 35S-methionine label).
T2 construct: range 1-1375; also called full length ASK1; 35S-labeled ASK1
T2 sequence (looked up): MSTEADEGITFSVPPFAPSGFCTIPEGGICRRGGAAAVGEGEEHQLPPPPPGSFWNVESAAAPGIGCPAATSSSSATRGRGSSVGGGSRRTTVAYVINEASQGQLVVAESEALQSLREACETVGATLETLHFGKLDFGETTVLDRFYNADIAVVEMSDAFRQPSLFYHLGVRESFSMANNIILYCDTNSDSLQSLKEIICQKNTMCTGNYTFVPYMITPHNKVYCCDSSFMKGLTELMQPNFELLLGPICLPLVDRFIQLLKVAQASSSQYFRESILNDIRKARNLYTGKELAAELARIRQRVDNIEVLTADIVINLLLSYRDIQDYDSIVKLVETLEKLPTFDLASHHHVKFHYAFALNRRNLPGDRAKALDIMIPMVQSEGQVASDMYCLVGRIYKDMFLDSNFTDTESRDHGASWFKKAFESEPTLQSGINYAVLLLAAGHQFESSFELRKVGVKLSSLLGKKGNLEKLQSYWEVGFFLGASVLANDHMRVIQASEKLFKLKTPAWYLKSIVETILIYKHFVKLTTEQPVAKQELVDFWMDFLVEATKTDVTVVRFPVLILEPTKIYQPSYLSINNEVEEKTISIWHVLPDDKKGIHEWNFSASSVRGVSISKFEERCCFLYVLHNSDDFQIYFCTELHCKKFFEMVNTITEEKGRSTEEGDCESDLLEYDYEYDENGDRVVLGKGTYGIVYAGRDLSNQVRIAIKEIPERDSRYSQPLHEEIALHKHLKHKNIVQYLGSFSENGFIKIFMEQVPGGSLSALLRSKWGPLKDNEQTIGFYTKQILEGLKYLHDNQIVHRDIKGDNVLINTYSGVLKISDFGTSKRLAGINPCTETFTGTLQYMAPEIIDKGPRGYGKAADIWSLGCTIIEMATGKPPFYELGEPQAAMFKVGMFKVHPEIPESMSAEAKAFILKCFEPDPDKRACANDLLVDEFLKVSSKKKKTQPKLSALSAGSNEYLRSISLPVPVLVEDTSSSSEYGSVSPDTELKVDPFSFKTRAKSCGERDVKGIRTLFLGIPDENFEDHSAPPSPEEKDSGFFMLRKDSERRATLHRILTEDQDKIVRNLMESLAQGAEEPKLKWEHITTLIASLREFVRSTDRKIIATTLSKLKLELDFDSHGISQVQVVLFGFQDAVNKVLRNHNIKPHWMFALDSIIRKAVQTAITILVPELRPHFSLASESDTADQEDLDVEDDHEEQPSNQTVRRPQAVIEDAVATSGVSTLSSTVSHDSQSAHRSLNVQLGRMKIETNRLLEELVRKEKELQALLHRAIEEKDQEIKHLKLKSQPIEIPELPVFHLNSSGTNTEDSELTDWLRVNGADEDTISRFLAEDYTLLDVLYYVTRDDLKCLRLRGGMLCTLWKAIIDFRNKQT
Description: GST pull-down on glutathione-agarose beads, 35S-labelled ASK1, SDS-PAGE. On the procedure:
After being immobilized onto glutathione-agarose beads, GST-CIA-WT and its deletion recombinant peptides were reacted with the […] [^35S] methionine-labeled ASK1 or its mutant peptides at 4° C. for 3 hours in a buffer (50 mM Tris, pH 7.5, 150 mM NaCl, 2 mM EDTA, 1 mM dithiothreitol, 0.1% NP-40 and 5 mg/ml BSA). After completion of the reaction, the glutathione-agarose beads were washed three times with a buffer (50 mM HEPES, pH 7.5, 150 mM NaCl, 1 mM EDTA, 1 mM dithiothreitol, 0.1% Tween 20). Next, ^35S-labeled peptides were eluted from the glutathione-agarose beads and analyzed by SDS-PAGE.

B1: GST-CIA-ΔN (CIA deficient in N-terminal amino acids 1 to 78) (other)
chain: AAFRQVQGSEISSIDEFCRKFRLDCPLAMERIKEDRPITIKDDKGNLNRCIADVVSLFITVMDKLRLEIRAMDEIQPDLRELMETMHRMSHLPPDFEGRQTVSQWLQTLSGMSASDELDDSQVRQMLFDLESAYNAFNRFLHA
notes: Range follows from 'deficient in N-terminal amino acids 1 to 78' of the 221-residue protein; also called CIA-AN; N-terminal region-deleted CIA peptide; not shown: N-terminal GST of pGEX-4T-1 and its linker
For the molecule B1, the binding result in assay [1] was “no binding”.

B2: GST-CIA-CEN (CIA containing only amino acids 79 to 174) (other)
chain: AAFRQVQGSEISSIDEFCRKFRLDCPLAMERIKEDRPITIKDDKGNLNRCIADVVSLFITVMDKLRLEIRAMDEIQPDLRELMETMHRMSHLPPDF
notes: also called CIA mutant peptide deficient in both terminal regions; not shown: N-terminal GST of pGEX-4T-1 and its linker
In the case of B2, the binding result in assay [1] and in assay [2] was “no binding” each time.
